For assay [1], the target named is T1, Recombinant oncogenic HRAS (G12V; residues 1 - 166) loaded with GppNp (human, UniProt P01112 1-166).
T1 construct: range 1-166; this form was used as antigen throughout the in vitro assays; also called HRASG12V-GppNp; RASG12V-GppNp
The experiment in a line: SPR, BIAcore 2000; HRASG12V-GppNp immobilised on CM5 chip (about 1500 RU), purified scFv injected.

Assay [2] concerns the target T2, non-relevant antigen (β-galactosidase) bait in yeast (UniProt P00722 2-1024 = β-galactosidase).
T2 construct: Used as non-relevant bait in the yeast two-hybrid test
As to the kind of experiment: yeast two-hybrid (His-independent growth, β-gal activation).

The target in assay [3] is T3, LexA DBD (made from the empty pBTM116 vector) (UniProt P0A7C2 1-202).
T3 construct: domain: LexA DBD; Control bait in yeast
T3 sequence: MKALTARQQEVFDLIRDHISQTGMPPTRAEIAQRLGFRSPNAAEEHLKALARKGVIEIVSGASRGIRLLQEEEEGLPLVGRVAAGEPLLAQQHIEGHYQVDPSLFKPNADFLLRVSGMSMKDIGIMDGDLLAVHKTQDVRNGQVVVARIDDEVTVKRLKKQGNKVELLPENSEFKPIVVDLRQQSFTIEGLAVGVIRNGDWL
The description is as above.

This note sets out measurements from patent WO2004046187A2 (dated 2004).

T2 sequence (P00722 2-1024 limits assumed): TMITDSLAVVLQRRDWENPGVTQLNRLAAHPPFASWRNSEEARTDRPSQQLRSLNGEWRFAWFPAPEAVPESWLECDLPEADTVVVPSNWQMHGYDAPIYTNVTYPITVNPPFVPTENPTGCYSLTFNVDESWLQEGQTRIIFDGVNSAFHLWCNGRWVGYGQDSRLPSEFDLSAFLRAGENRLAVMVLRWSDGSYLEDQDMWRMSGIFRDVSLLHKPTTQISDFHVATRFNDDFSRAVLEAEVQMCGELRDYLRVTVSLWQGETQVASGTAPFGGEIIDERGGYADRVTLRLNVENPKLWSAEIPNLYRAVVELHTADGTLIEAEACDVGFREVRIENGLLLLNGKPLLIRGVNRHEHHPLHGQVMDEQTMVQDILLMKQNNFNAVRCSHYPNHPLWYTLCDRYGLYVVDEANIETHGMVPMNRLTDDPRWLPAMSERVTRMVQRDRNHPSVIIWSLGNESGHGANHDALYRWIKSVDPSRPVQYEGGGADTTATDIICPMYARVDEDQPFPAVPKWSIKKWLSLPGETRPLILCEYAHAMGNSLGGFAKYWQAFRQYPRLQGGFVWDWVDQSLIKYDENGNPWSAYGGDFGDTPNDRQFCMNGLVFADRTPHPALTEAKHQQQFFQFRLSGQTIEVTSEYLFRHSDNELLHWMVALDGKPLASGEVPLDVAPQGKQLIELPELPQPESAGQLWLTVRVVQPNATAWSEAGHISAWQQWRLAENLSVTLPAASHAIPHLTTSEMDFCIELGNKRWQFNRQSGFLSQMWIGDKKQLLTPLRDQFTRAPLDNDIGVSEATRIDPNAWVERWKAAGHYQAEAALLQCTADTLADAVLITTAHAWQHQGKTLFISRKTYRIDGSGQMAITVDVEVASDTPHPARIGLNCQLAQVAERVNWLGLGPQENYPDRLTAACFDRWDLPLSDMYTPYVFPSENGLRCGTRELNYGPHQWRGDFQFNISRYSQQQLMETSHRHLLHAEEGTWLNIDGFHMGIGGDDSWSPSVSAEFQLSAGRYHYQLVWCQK

B1: anti-RAS scFvI21, purified from bacterial periplasm (pHEN2) (scFv)
scFv: EVQLLESGGGLVQPGGSLRLSCAASGFTFSSYAMSWVRQAPGKGLEWVSTISYGGSNTNYADSVKARFTISRDNSKNTLYLQMNSLRAEDTAVYYCAKGNNAFDYWGQGTLVTVSSGGGGSGGGGSGGGGSTDIQMTQSPSSLSASVGDRVTITCRASQSISSYLNWYQQKPGKAPKLLIYNASALQSGVPSRFSGSGSGTDFTLTISSLQPEDFATYYCQQYTSTPRTFGQGTKVEIKR
notes: also called 121 (as the text prints it); ICAb 121; not shown: C-terminal His6-tag and myc-tag from pHEN2
For B1, the dissociation constant (Kd) in assay [1] is 2.16 µM.

B2: scFvI21-VP16 activation domain fusion (scFv)
scFv: EVQLLESGGGLVQPGGSLRLSCAASGFTFSSYAMSWVRQAPGKGLEWVSTISYGGSNTNYADSVKARFTISRDNSKNTLYLQMNSLRAEDTAVYYCAKGNNAFDYWGQGTLVTVSSGGGGSGGGGSGGGGSTDIQMTQSPSSLSASVGDRVTITCRASQSISSYLNWYQQKPGKAPKLLIYNASALQSGVPSRFSGSGSGTDFTLTISSLQPEDFATYYCQQYTSTPRTFGQGTKVEIKR
notes: In the mammalian vector the scFv stands on the N-terminal side of VP16; the same id is used for the yeast pVP16 prey; also called 121; ICAb 121
Regarding B2, the binding result in assay [2] and in assay [3] was “no binding” throughout.
